Reference: publication PMC4989314, “Regulatory (pan-)genome of an obligate intracellular pathogen in the PVC superphylum”

T1: His6-Euo (Waddlia chondrophila, UniProt D6YSI2 1-142)
T1 sequence: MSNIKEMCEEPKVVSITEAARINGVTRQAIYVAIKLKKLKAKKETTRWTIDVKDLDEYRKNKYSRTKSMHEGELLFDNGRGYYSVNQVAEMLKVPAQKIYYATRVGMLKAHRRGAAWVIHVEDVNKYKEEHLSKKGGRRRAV

T2: His6-HrcA (Waddlia chondrophila) (UniProt D6YSD6)
T2 sequence: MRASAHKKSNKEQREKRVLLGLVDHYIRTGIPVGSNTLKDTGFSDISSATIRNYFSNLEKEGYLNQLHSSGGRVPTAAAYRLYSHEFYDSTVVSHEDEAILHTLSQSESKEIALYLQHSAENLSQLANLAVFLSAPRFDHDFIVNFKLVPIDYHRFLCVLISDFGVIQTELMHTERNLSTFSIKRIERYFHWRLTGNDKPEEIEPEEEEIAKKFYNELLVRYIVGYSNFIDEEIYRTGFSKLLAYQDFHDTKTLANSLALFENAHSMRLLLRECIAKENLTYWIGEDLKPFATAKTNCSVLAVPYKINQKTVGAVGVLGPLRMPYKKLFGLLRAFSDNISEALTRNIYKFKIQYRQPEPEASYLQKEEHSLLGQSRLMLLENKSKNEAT

T3: His6-Euo (Waddlia chondrophila) (UniProt D6YSI2)
T3 sequence: T1 sequence

B1: PftsY_mut 1+2 (dsDNA)
DNA 1: TTTGTCGACTTATCTTACACAACTGAGACTTCCAATGGTACTACCCTTCTTCCCATCTAGTTTTGAAAAAGTTAAAAATGCCCTCTCCAAAACGCGTTCCGCTCTGGGAGAAAAATTGCGTTCTCTTTTCAGTGGAAAAATCGATGAAGAAACACTGGACTGCAGTTT
DNA 2: AAACTGCAGTCCAGTGTTTCTTCATCGATTTTTCCACTGAAAAGAGAACGCAATTTTTCTCCCAGAGCGGAACGCGTTTTGGAGAGGGCATTTTTAACTTTTTCAAAACTAGATGGGAAGAAGGGTAGTACCATTGGAAGTCTCAGTTGTGTAAGATAAGTCGACAAA
B2: PqueF_mut 1+2+3+4 (dsDNA)
DNA 1: AAACTGCAGGGCCAATCTTTCATTGATTGTCCATTCATGGTCGGCAAGGGTTGAGAGAAGGGCTTTATTTTAGGGTTCGTTCTTTGATAGGGTTGCAGGCATGGTGCAAGTGCAGGATTCAGTTTTAGGAAAAAAGACGTTTTATAAGGATCGGTACGAGTCGACAAA
DNA 2: TTTGTCGACTCGTACCGATCCTTATAAAACGTCTTTTTTCCTAAAACTGAATCCTGCACTTGCACCATGCCTGCAACCCTATCAAAGAACGAACCCTAAAATAAAGCCCTTCTCTCAACCCTTGCCGACCATGAATGGACAATCAATGAAAGATTGGCCCTGCAGTTT

Target: T1, His6-Euo
Assay: EMSA; EMSA with Cy5 PCR probes or 80 ng unlabelled DNA (GelRed); buffer, salt, pH and temperature not in material
Settings: protein: recombinant; tags: His6; chain copies: 2; label: Cy5; blunt

Molecule | binding result
B1 | no binding
B2 | no binding

Target: T2, His6-HrcA (Waddlia chondrophila)
Assay: EMSA
Settings: EMSA with Cy5 PCR probes or 80 ng unlabelled DNA (GelRed); buffer, salt, pH and temperature not in material

Molecule | binding
ATTTATAAAGAAACTTCTCTTGGAGGGCTTGCAGTAAACGTGCCTGAATGCTAAAAGATTTGGTATATGGAGCTAATAAAGGATCAAATGCAAAGATACGAAGAACGGGAACTCGTCGAATTCGAAAATCAAGGGATAAAAATTTTTGGA (double strand) [Pwcw_1080] | binds
CATAACTTTTTGGGAATTTCAAGATCGACTCGGGATCGTGCAGTAAAACATTAGTATCTAATACAAAGGTCTTTTTCTTCACATACGCTCCTTTTTAATAGCACTTATAGCTTGAGAGTGCTAAATCAATTGACTTAAATAGGTTTATTT (double strand) [PphoH] | binds
CCTATATCGTATGGCGGCTAAAAGAGCTTGACCGGGCGAAAAGGGAGCAATTTAAGCAAAAGCGGGAACGGTATTTATTGTACCGCTAAAAACTGGCACTTAAATTCATCAACTGCTAATATGTTGACGTAAATCCATTGAACTCTTAAA (double strand) [PgroES3] | binds
CTAGCTAGCTAAACATCTGCTTAAGTGATAACACCTCTAATGCTATCAATATCCTTCGATATTTTGCAATAGAAAATTAGCACTTTGGCAATTAAAGTGCTAATAACTTATCCAGCTCCTCGACAAGATTGCTGAATTTTTTGATGGCAG (double strand) [PgroES1] | binds
GCTGCTCAATTGGTCTATAAAAAAGGACTTGACTGGCGCCCTTCTATTGTCGACATTTTACCCGTCATTCTGGAAAAACAAATCTAGCAAATAGCTTTGTTGAGTGCTAATTCCTTCTTGACCTCTTTTAAACCCCTTGTTATAATGAAA (double strand) [PhrcA (HrcA EMSA)] | binds

Target: T3, His6-Euo (Waddlia chondrophila)
Assay: EMSA
Settings: EMSA with Cy5 PCR probes or 80 ng unlabelled DNA (GelRed); buffer, salt, pH and temperature not in material

Molecule | binding
CACCGGAAGATGTGGTGCTGATTGCGGGCAGAGGGCATGAACCTTATCAAATATTTGCGCATCAAACAATAGAATTTAAAGATCGCGAAGTTGTAGAGGATATATTACATTCATGAGGAGAAGCAATCGCAGGGAATTCTTAAAAAATAG (double strand) [PamiA] | binds
TCCAGTGTTTCTTCATCGATTTTTCCACTGAAAAGAGAACGCAATTTTTCTCCCAGAGCGGAACGCGTTTTGGAGAGGGCATTTTTAACTTTTTCAAAACTAGATTTTAAGAATTTTAGTACCATTGGAAGTCTCAGTTGTGTAAGATAA (double strand) [PftsY (frag0)] | binds
TCGTACCGATCCTTATAAAACGTCTTTTTTCCTAAAACTGAATCCTGCACTTGCACCATGCCTGCAATTTTATCAAAGAACGAATTTTAAAATAAAGAAATTCTCTCAAAAATTGCCGACCATGAATGGACAATCAATGAAAGATTGGCC (double strand) [PqueF (frag0)] | binds
TGTAATGCCATGGGATCGCGTTTAAGCGAGATCATATAGTAGCTCCTAAAAAAATATTCCTTGCAAGACAAACAAATTTTTTCGTGTAAAGTTTGCATTTTCAAAATCGGACCAGATGAAAATGCGCAAACTCTCTTTTTTACTCCTCC (double strand) [Prhs9] | binds
TTCGCGGGCAGCGTTGATCCCGCCAAAACCGCCTCCAATAATAATGACTTTAGGTTTGCTCATATCTTGTTTATATAATTAAAAATGATTTTAAAAATCCAGATTAAAATTGTTCGACGAGTTGATGGATTTCTGAAAAGGAAAGGGGGT (double strand) [Pndh] | binds
TTGTCATGAAAAACTCTATGAATCAAATAAGGAGGGGCATTTACATGGCGCTCAGTAAAACTATCAACGAAATGAGGAGCCTTTTTACAGGTCTAATCGATGACCTTCAAAAGGCTGAAGCAGGTAACAAAGCTGCCTCTCAGCGTGTAA (double strand) [PhctA] | no binding
